Test [1] addresses PDL1-Fc fusion protein (human PDL1-Fc) (human). Nature of the test: ELISA; OD on PDL1-Fc divided by OD on Fc protein, control group well (row 'blank'). On the technique in general: An ELISA detects its analyte on a solid surface through an enzyme-linked reagent.
For test [2] the target is unchanged. Nature of the test: ELISA; PDL1-Fc coated, control group well (row 'blank'), anti-His detection, 405 nm.
Test [3] has as its target Mouse PDL1-Fc protein (mouse). Briefly: ELISA; mouse PDL1-Fc coated at 0.5 µg/well, control group well (row 'blank'), anti-His detection, 405 nm.
A further test concerns the target Fc protein. Nature of the test: ELISA; Fc protein coated, control group well (row 'blank'), anti-His detection, 405 nm.
The target of test [4] is PDL1-Fc fusion protein (human PDL1-Fc) (human). Nature of the test: SPR, BIAcore X100; PDL1-Fc on CM5 chip, antibody as analyte, 25 C. For orientation: SPR reads the build-up and loss of mass on a sensor chip optically.
Chain of PDL1-Fc fusion protein (human PDL1-Fc) (human) (chain, as listed by the source limits assumed): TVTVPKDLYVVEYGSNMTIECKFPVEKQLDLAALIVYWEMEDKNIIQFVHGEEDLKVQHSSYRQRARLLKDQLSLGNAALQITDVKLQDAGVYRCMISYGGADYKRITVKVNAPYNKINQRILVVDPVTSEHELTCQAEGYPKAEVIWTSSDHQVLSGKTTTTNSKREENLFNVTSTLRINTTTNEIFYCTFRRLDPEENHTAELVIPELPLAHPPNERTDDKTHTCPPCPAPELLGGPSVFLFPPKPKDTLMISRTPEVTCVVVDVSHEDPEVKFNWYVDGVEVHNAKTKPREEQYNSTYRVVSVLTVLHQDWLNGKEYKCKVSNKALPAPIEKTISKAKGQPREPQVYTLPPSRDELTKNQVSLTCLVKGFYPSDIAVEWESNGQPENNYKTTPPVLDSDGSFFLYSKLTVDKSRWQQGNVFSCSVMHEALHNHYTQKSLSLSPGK

Chain of Mouse PDL1-Fc protein (mouse) (chain, as listed by the source limits assumed): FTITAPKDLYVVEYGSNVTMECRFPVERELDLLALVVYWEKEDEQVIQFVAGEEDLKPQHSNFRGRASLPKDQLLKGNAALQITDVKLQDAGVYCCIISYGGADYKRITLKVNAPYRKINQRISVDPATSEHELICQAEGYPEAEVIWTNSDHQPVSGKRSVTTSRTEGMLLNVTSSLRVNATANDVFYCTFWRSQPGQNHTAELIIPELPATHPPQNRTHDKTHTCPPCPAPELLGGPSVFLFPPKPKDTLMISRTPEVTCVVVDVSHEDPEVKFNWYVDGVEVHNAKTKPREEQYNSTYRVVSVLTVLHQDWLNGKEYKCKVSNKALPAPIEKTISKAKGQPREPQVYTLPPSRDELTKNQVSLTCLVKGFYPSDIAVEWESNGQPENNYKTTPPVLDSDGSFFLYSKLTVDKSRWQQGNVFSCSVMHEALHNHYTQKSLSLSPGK

In turn, “control single domain antibody against other unrelated target (control group of the ELISA; table row 'blank') (VHH)” registered an OD (PDL1/Fc) in test [1] of 0.75. Also, in test [2], the OD (against PDL1) worked out at 0.054 OD. In addition, the OD (against mouse PDL1) in test [3] stood at 0.096 OD. In the test with Fc protein, the OD (against Fc) worked out at 0.072 OD.
The term Kd denotes a measure of binding affinity in units of concentration. A low value points to tighter binding. In test [4], 243.55 (anti-PDL1 antibody of Roche) yielded a Kd of 0.135 nM.
